Measurements published in publication PMC8558179, “The C-terminal peptide of CCL21 drastically augments CCL21 activity through the dendritic cell lymph node homing receptor CCR7 by interaction with the receptor N-terminus” (Cellular and Molecular Life Sciences: CMLS, 2021).
“Also recorded” adds a separate entry of the source.

T1: CCR7^−O (CCR7 T37/38/42A) (Homo sapiens, UniProt P32248, T37A/T38A/T42A)
T1 construct: CCR7 contains a 24-residue long signal peptide cleaved of from the mature protein; expressed in transfected cells; host or cells: CHO cells, transient transfection
T1 sequence (P32248 25-378 T37A/T38A/T42A): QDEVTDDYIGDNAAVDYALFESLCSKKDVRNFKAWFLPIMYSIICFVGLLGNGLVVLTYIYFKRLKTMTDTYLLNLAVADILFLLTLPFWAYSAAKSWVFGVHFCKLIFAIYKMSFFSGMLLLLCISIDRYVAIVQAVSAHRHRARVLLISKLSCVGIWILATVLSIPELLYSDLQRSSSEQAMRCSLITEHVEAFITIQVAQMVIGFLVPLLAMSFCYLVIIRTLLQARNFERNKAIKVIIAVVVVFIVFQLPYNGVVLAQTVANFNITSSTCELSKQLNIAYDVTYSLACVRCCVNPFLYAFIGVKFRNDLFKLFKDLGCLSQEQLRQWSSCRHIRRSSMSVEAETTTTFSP

B1: CCL21: full-length chemokine (residues 1–111), CCR7 ligand, from R&D Systems (protein, UniProt O00585 24-134, looked up)
C-C motif chemokine 21: SDGGAQDCCLKYSQRKIPAKVVRSYRKQEPSLGCSIPAILFLPRKRSQAELCADPKELWVQQLMQHLDKTPSPQKPAQGCRKDRGASKTGKKGKGSKGCKRTERSQTPKGP

How the values were obtained:
[1] = molecular target: T1, CCR7^−O (CCR7 T37/38/42A); test: Gαi signaling, BRET cAMP assay, CCR7 lacking N-terminal O-glycosylation sites; format: cell-based
Protocol: O-glycosylation deficient CCR7 was generated from WT through Quick change PCR using the following primers: […]
For cAMP assays, adherent CHO cells were transfected using lipofectamine while suspension cells were transfected using the FectoPro method. Cells were seeded in a 6-well plate, either 500,000 (adherent cells) or 200,000 (suspension cells) cells/well. The next day the cells were transiently transfected with vectors encoding the human CCR7 and CAMYEL sensor (cAMP sensor using YFP-Epac-RLuc) in a 1:5 ratio using lipofectamine (6 µl/well) or FectoPro (4 µl/well). Lipofectamine transfections were terminated by changing to 2 ml fresh cultivation medium after 5 h, while Fectopro transfection was terminated after 3 h by adding 2.5 ml fresh cultivation medium and 2 µl FectoPro Boost reagent per well. The cells were incubated under standard cultivation conditions overnight. For β-arrestin recruitment assays, cells were transfected with CCR7 and vectors expressing a Renilla luciferase arrestin3 fusion protein and membrane-SH3-citrine protein. The cells were then resuspended in PBS w/glucose and seeded in 96-well white iso plates (~ 25,000 cells/well). Coelenterazine (bioluminescence substrate) was added to a final conc. of 5 µM. After 10 min, cells were stimulated with varying ligand concentrations for a total of 40 min. Forskolin was added to each well 5 min after ligand addition to reach a final conc. of 5 µM. The plates were kept in the dark at all times. Emission signal from Rluc and eYFP was measured using the Envision machine at 530 and 480 nm and the BRET signal determined as the ratio between (eYFP/Rluc).

[2] = system: CCR6; test: Gαi signaling, BRET cAMP assay at CCR6 in CHO cells; format: cell-based; settings: CCL20 + 10 µM TP71-111, CHO cells, n = 3
Protocol: For cAMP assays, adherent CHO cells were transfected using lipofectamine while suspension cells were transfected using the FectoPro method. Cells were seeded in a 6-well plate, either 500,000 (adherent cells) or 200,000 (suspension cells) cells/well. The next day the cells were transiently transfected with vectors encoding the human CCR7 and CAMYEL sensor (cAMP sensor using YFP-Epac-RLuc) in a 1:5 ratio using lipofectamine (6 µl/well) or FectoPro (4 µl/well). Lipofectamine transfections were terminated by changing to 2 ml fresh cultivation medium after 5 h, while Fectopro transfection was terminated after 3 h by adding 2.5 ml fresh cultivation medium and 2 µl FectoPro Boost reagent per well. The cells were incubated under standard cultivation conditions overnight. […] Emission signal from Rluc and eYFP was measured using the Envision machine at 530 and 480 nm and the BRET signal determined as the ratio between (eYFP/Rluc).
Supplementary file 18_2021_3930_MOESM2_ESM.png: Supplementary file2 C21TP also boosts signaling of the DC expressed chemokine receptor CCR6. […] B) CCL20-induced CCR6 Gαi –signaling in CHO cells quantified using the BRET Based cAMP assay. […] Statistical significance was calculated using two-way ANOVA with Sidek’s correction for multiple test. *P<0.05, **P <0.01, ***P <0.001, ns, not significant (PNG 878 KB)

[3] = system: CCR7 (primary T cells); settings: heterologous competition binding, apparent affinity; cited from earlier work
Excerpt: In the absence of peptide, CCL19 and CCL21 contact CCR7 in different manners. The interaction of CCL21 depends on residues in the top of TM-3, -4 and -5 that are not important for CCL19 interaction with CCR7. The binding of these two chemokines induce different structural changes in CCR7 to disrupt old and create new hydrogen bonds. CCL21 binding to CCR7 is believed to involve movements within the majority of helical domains (TM2, -3, -4, -5, -6, and -7), whereas the changes induced by CCL19 are restricted to regions of TM3, -5, and -6 [37]. The conformational changes in CCR7 ind ...

[4] = system: CCL21; settings: cited from earlier work
Excerpt: Another phenomenon that could explain the C21TP boosting ability would be that the peptide was able to relieve the auto-inhibition of CCL21. The peptide could potentially occupy the site on CCL21 normally contacted by the attached basic C-terminus during the auto-inhibition process, in this way preventing the formation of the locked CCL21 version. In this way the peptide could participate in unfolding of CCL21, similar to the process that is predicted to take place in the presence of polysialic acid residues. The boosting effect of C21TP on CCL19 could also be based on a direct chemokin ...

[5] = system: Collagen I; settings: cited from earlier work
Excerpt: In the current study we have used Collagen I in the 3D chemotaxis assays. Collagen I has low affinity for CCL21 [31]. Matrigel on the other hand binds CCL21 well. As CCL21 is immobilized in vivo [20], to evaluate the full effect of C21TP on dendritic cell migration, experiments using Matrigel would need to be conducted. Such assay could reveal if C21TP affect the interaction between CCR7 and immobilized CCL21 where the basic tail is participating in surface tethering and potentially unable to engage in steric hindrance of CCR7. Again, since boosting of in vitro signaling occurred in both p ...

boosting of CCL19 signaling by C21TP at CCR7^−O ([1]; CCL19 + 10 µM TP71-111, CCR7^−O vs WT CCR7) | Molecule | boosting of CCL20-induced signaling at CCR6 [2] | boosting of CCL20-induced signaling at CCR6 ([2]; listed as C21TP) | chemokine activity on its own at CCR7^−O ([1]; no peptide, CCR7^−O vs WT CCR7) | fold lower binding affinity of CCL21 in primary T cells [3] | CCL21 self-association [4] | affinity of Collagen I for CCL21 [5]
diminished | TP71-111: free CCL21 C-terminal peptide, residues 71–111 (41 amino acids, positively charged) (PSPQKPAQGCRKDRGASKTGKKGKGSKGCKRTERSQTPKGP; UniProt O00585 94-134, looked up, fragment) | very similar to the boosting observed with CCL19 acting at CCR7 | also boosts CCL20 signaling via CCR6 | – | – | – | –
– | B1 | – | – | almost unaffected; also recorded: without affecting basal CCR7 activation via CCL19 and CCL21 | sixfold lower binding affinity | weak and only detectable at mM concentrations | low affinity
